Test results: patent publication US20150344570A1 (published 2015)

T1: FcγRIIa R (human, UniProt P12318 34-217)
T1 construct: extracellular domain; also called FcgRIIa R; FcγRIIa type R; not shown: His tag at the C terminus
T1 sequence (looked up): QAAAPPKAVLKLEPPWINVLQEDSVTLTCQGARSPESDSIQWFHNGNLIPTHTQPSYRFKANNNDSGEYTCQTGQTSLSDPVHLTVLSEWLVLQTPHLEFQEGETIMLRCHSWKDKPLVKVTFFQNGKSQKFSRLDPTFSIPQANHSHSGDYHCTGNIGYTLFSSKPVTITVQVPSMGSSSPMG

T2: FcγRIIb (human, UniProt P31994 43-217)
T2 construct: extracellular domain; also called FcgRIIb; 2b; not shown: His tag at the C terminus
T2 sequence (looked up): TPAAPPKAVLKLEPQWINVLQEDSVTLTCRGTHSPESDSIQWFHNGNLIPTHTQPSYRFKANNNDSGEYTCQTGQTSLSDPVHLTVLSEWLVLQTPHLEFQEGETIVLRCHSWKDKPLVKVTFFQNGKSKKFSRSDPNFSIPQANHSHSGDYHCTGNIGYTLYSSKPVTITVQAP

T3: FcγRIIb extracellular domain with C-terminal His tag (human, UniProt P31994 43-217)
T3 construct: extracellular domain; also called FcgRIIb; CD32B; not shown: His tag at the C terminus
T3 sequence (looked up): T2 sequence (looked up)

B1: GpH7-A5/GpH7-B3 variant P238_01G/GpL16-k0 (antibody, human IgG1, kappa)
heavy 1: not shown
heavy 2: not shown
light: DIVMTQSPLSLPVTPGEPASISCQASESLVHSNRNTYLHWYLQKPGQSPQLLIYKVSNRFSGVPDRFSGSGSGTDFTLKISRVEAEDVGVYYCSQNTHVPPTFGQGTKVEIERTVAAPSVFIFPPSDEQLKSGTASVVCLLNNFYPREAKVQWKVDNALQSGNSQESVTEQDSKDSTYSLSSTLTLSKADYEKHKVYACEVTHQGLSSPVTKSFNRGEC
notes: Heterodimerized anti-glypican-3 IgG1; mutation in one H chain only; also called He Ab
B2: GpH7-A5/GpH7-B3 variant G236_20W/GpL16-k0 (antibody, human IgG1, kappa)
heavy 1: not shown
heavy 2: not shown
light: B1 light
notes: as for B1
B3: GpH7-A5/GpH7-B3 variant G237_03V/GpL16-k0 (antibody, human IgG1, kappa)
heavy 1: not shown
heavy 2: not shown
light: B1 light
notes: as for B1
B4: GpH7-A5/GpH7-B3 variant D265_01G/GpL16-k0 (antibody, human IgG1, kappa)
heavy 1: not shown
heavy 2: not shown
light: B1 light
notes: as for B1
B5: GpH7-A5/GpH7-B3 variant G236_16H/GpL16-k0 (antibody, human IgG1, kappa)
heavy 1: not shown
heavy 2: not shown
light: B1 light
notes: as for B1
B6: GpH7-A5/GpH7-B3 variant G236_15Y/GpL16-k0 (antibody, human IgG1, kappa)
heavy 1: not shown
heavy 2: not shown
light: B1 light
notes: as for B1
B7: GpH7-A5/GpH7-B3 variant D265_06M/GpL16-k0 (antibody, human IgG1, kappa)
heavy 1: not shown
heavy 2: not shown
light: B1 light
notes: as for B1
B8: GpH7-A5/GpH7-B3 variant D265_04F/GpL16-k0 (antibody, human IgG1, kappa)
heavy 1: not shown
heavy 2: not shown
light: B1 light
notes: as for B1
B9: GpH7-A5/GpH7-B3 variant D265_08L/GpL16-k0 (antibody, human IgG1, kappa)
heavy 1: not shown
heavy 2: not shown
light: B1 light
notes: as for B1
B10: GpH7-A5/GpH7-B3 variant D265_03V/GpL16-k0 (antibody, human IgG1, kappa)
heavy 1: not shown
heavy 2: not shown
light: B1 light
notes: as for B1
B11: GpH7-A5/GpH7-B3 variant G236_19Q/GpL16-k0 (antibody, human IgG1, kappa)
heavy 1: not shown
heavy 2: not shown
light: B1 light
notes: as for B1
B12: GpH7-A5/GpH7-B3 variant D265_02A/GpL16-k0 (antibody, human IgG1, kappa)
heavy 1: not shown
heavy 2: not shown
light: B1 light
notes: as for B1
B13: GpH7-A5/GpH7-B3 variant D265_07I/GpL16-k0 (antibody, human IgG1, kappa)
heavy 1: not shown
heavy 2: not shown
light: B1 light
notes: as for B1
B14: GpH7-A5/GpH7-B3 variant G236_16H/GpL16-k0 (antibody, human IgG1, kappa)
heavy 1: not shown
heavy 2: not shown
light: B1 light
notes: Heterodimerized anti-glypican-3 IgG1; mutation only in the GpH7-B3 H chain; also called He Ab
B15: GpH7-A5/GpH7-B3 variant S239_12R/GpL16-k0 (antibody, human IgG1, kappa)
heavy 1: not shown
heavy 2: not shown
light: B1 light
notes: as for B14
B16: GpH7-A5/GpH7-B3 variant G236_20W/GpL16-k0 (antibody, human IgG1, kappa)
heavy 1: not shown
heavy 2: not shown
light: B1 light
notes: Heterodimerized anti-glypican-3 IgG1; mutation only in the GpH7-B3 H chain; also called He Ab; GpH7-A5/GpH7-B3-03-20W/GpL16-k0
B17: GpH7-A5/GpH7-B3 variant G236_19Q/GpL16-k0 (antibody, human IgG1, kappa)
heavy 1: not shown
heavy 2: not shown
light: B1 light
notes: as for B14
B18: GpH7-A5/GpH7-B3 variant P238_01G/GpL16-k0 (antibody, human IgG1, kappa)
heavy 1: not shown
heavy 2: not shown
light: B1 light
notes: as for B14
B19: GpH7-A5/GpH7-B3 variant G237_03V/GpL16-k0 (antibody, human IgG1, kappa)
heavy 1: not shown
heavy 2: not shown
light: B1 light
notes: as for B14
B20: GpH7-A5/GpH7-B3 variant P238_07I/GpL16-k0 (antibody, human IgG1, kappa)
heavy 1: not shown
heavy 2: not shown
light: B1 light
notes: as for B14
B21: GpH7-A5/GpH7-B3 variant S239_15Y/GpL16-k0 (antibody, human IgG1, kappa)
heavy 1: not shown
heavy 2: not shown
light: B1 light
notes: as for B14
B22: GpH7-A5/GpH7-B3 variant P238_11K/GpL16-k0 (antibody, human IgG1, kappa)
heavy 1: not shown
heavy 2: not shown
light: B1 light
notes: as for B14
B23: GpH7-A5/GpH7-B3 variant G237_14T/GpL16-k0 (antibody, human IgG1, kappa)
heavy 1: not shown
heavy 2: not shown
light: B1 light
notes: as for B14
B24: GpH7-A5/GpH7-B3 variant S239_11K/GpL16-k0 (antibody, human IgG1, kappa)
heavy 1: not shown
heavy 2: not shown
light: B1 light
notes: as for B14
B25: GpH7-A5/GpH7-B3 variant P238_12R/GpL16-k0 (antibody, human IgG1, kappa)
heavy 1: not shown
heavy 2: not shown
light: B1 light
notes: as for B14
B26: GpH7-A5/GpH7-B3 variant G237_16H/GpL16-k0 (antibody, human IgG1, kappa)
heavy 1: not shown
heavy 2: not shown
light: B1 light
notes: as for B14
B27: GpH7-A5/GpH7-B3 variant P238_13S/GpL16-k0 (antibody, human IgG1, kappa)
heavy 1: not shown
heavy 2: not shown
light: B1 light
notes: as for B14
B28: GpH7-A5/GpH7-B3 variant S239_16H/GpL16-k0 (antibody, human IgG1, kappa)
heavy 1: not shown
heavy 2: not shown
light: B1 light
notes: as for B14
B29: GpH7-A5/GpH7-B3 variant P238_18N/GpL16-k0 (antibody, human IgG1, kappa)
heavy 1: not shown
heavy 2: not shown
light: B1 light
notes: as for B14
B30: GpH7-A5/GpH7-B3 variant P238_02A/GpL16-k0 (antibody, human IgG1, kappa)
heavy 1: not shown
heavy 2: not shown
light: B1 light
notes: as for B14
B31: GpH7-A5/GpH7-B3 variant P238_14T/GpL16-k0 (antibody, human IgG1, kappa)
heavy 1: not shown
heavy 2: not shown
light: B1 light
notes: as for B14
B32: GpH7-A5/GpH7-B3 variant S239_04F/GpL16-k0 (antibody, human IgG1, kappa)
heavy 1: not shown
heavy 2: not shown
light: B1 light
notes: as for B14
B33: GpH7-A5/GpH7-B3 variant G237_05P/GpL16-k0 (antibody, human IgG1, kappa)
heavy 1: not shown
heavy 2: not shown
light: B1 light
notes: as for B14

Target: T1, FcγRIIa R
Assay: SPR (Biacore T100); He/Con_2aR divided by He/Con_2b (FcγRIIa R over FcγRIIb)
Procedure: (§1) The heterodimerized antibodies He Abs in which one of the H chains was introduced with an alteration were assayed for their binding activities to each activating FcγR and inhibitory FcγR according to the method described in Example 4. […] The activating FcγRs in FIGS. 26, 27, 28, and 29 are FcγRIa, FcγRIIa (R), FcγRIIa (H), and FcγRIIIa, respectively.
(§2) Analysis of interaction between objective antibody and the FcγR was carried out using Biacore T100 (GE Healthcare). HBS-EP+ (GE Healthcare) was used as the running buffer, and the measurement temperature was set to 25° C. Chips produced by immobilizing the antigen peptide by the amine coupling method to a Series S Sencor Chip CM5 (GE Healthcare), or alternatively, chips produced by allowing preliminarily biotinylated antigen peptides to interact with and immobilize onto a Series S Sensor Chip SA (certified) (GE Healthcare) were used. Antibodies of interest were captured onto an antigen peptide-immobilized chip, and allowed to interact to each FcγR diluted with running buffer. To regenerate and repeatedly use the chip, the antibodies captured on the chip were washed off by reacting 10 mM glycine-HCl, pH 1.5.

He_2aR/2b (IIaR/IIb) | Binder
1.34 ratio | B1
1.34 ratio | B2
1.52 ratio | B3
1.49 ratio | B4
2.24 ratio | B5
1.48 ratio | B6
1.58 ratio | B7
1.79 ratio | B8
1.46 ratio | B9
1.8 ratio | B10
1.59 ratio | B11
1.71 ratio | B12
2.57 ratio | B13

Target: T4, FcγRIa extracellular domain with C-terminal His tag (human, UniProt P12314 16-292)
T4 construct: extracellular domain; also called FcgRI; CD64; not shown: His tag at the C terminus
Assay: SPR; He/Con_1a divided by He/Con_2b (FcγRIa against FcγRIIb)

T4 sequence (P12314 16-292): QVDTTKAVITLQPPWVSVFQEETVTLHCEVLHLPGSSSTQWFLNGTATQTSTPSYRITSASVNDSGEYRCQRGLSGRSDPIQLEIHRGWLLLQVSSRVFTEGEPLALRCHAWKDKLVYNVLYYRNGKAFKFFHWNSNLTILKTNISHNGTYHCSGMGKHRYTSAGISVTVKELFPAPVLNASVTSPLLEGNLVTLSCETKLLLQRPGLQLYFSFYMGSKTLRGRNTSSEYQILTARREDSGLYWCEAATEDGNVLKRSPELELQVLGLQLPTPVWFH

He_1a/2b (Ia/IIb) | Binder
2.99 ratio | B14
2.21 ratio | B15
1.81 ratio | B16
1.98 ratio | B17
1.66 ratio | B18
1.28 ratio | B19
1.24 ratio | B20
2.57 ratio | B21
4.27 ratio | B22
1.5 ratio | B23
2.75 ratio | B24
1.5 ratio | B25
1.32 ratio | B26
1.37 ratio | B27
1.78 ratio | B28
1.27 ratio | B29
1.66 ratio | B30
1.8 ratio | B31
2.13 ratio | B32
1.81 ratio | B33

Target: T2, FcγRIIb
Assay: SPR (Biacore T100), antibody captured on antigen peptide chip, FcγR as analyte; binding relative to GpH7-A5/GpH7-B3/GpL16-k0 = 100
Procedure: as §1, §2

He/Con_2b (IIb binding) | Binder
56 % of control | B1
58.2 % of control | B2
61.4 % of control | B3
16.1 % of control | B4
27.9 % of control | B5
39.5 % of control | B6
10 % of control | B7
3.2 % of control | B8
4.6 % of control | B9
3.2 % of control | B10
46.6 % of control | B11
19.9 % of control | B12
1.3 % of control | B13

Target: T1, FcγRIIa R
Assay: as above
Procedure: as §1, §2

He/Con_2aR (IIaR binding) | Binder
75 % of control | B1
77.9 % of control | B2
93 % of control | B3
24.1 % of control | B4
62.7 % of control | B5
58.6 % of control | B6
15.8 % of control | B7
5.6 % of control | B8
6.6 % of control | B9
5.8 % of control | B10
74.2 % of control | B11
33.9 % of control | B12
3.4 % of control | B13

Target: T4, FcγRIa extracellular domain with …
Assay: SPR (Biacore), antibody captured, FcγR analyte; relative to GpH7-A5/GpH7-B3/GpL16-k0 = 100

He/Con_1a | Binder
83.5 % of HeCon Ab | B14
86.5 % of HeCon Ab | B15
105 % of HeCon Ab | B16
92.1 % of HeCon Ab | B17
92.9 % of HeCon Ab | B18
78.5 % of HeCon Ab | B19
99.1 % of HeCon Ab | B20
89.8 % of HeCon Ab | B21
77.4 % of HeCon Ab | B22
82.3 % of HeCon Ab | B23
68 % of HeCon Ab | B24
77.3 % of HeCon Ab | B25
72.6 % of HeCon Ab | B26
96.6 % of HeCon Ab | B27
88.1 % of HeCon Ab | B28
93.3 % of HeCon Ab | B29
95.2 % of HeCon Ab | B30
91.1 % of HeCon Ab | B31
93.8 % of HeCon Ab | B32
44.5 % of HeCon Ab | B33

Target: T3, FcγRIIb extracellular domain with …
Assay: as above

He/Con_2b | Binder
27.9 % of HeCon Ab | B14
39.1 % of HeCon Ab | B15
58.2 % of HeCon Ab | B16
46.6 % of HeCon Ab | B17
56 % of HeCon Ab | B18
61.4 % of HeCon Ab | B19
80 % of HeCon Ab | B20
34.9 % of HeCon Ab | B21
18.1 % of HeCon Ab | B22
54.8 % of HeCon Ab | B23
24.7 % of HeCon Ab | B24
51.4 % of HeCon Ab | B25
55.2 % of HeCon Ab | B26
70.4 % of HeCon Ab | B27
49.4 % of HeCon Ab | B28
73.2 % of HeCon Ab | B29
57.4 % of HeCon Ab | B30
50.7 % of HeCon Ab | B31
44.1 % of HeCon Ab | B32
24.6 % of HeCon Ab | B33
